Assay results published in patent US9067981 (Janssen / Centocor, dated 2015).
Numbering of substitutions follows the chain as printed.

B1: Fab fragment of 3D6 (Fab, V domains shown)
VL: not shown
V domain: EVKLVESGGGLVKPGASLKLSCAASGFTFSNYGMSWVRQNSDKRLEWVASIRSGGGRTYYSDNVKGRFTISRENAKNTLYLQMSSLKSEDTALYYCVRYDHYSGSSDYWGQGTTITVSS
notes: also called 3D6 Fab
B2: 12A11 murine IgG1 kappa monoclonal antibody (antibody, V domains shown)
VH: QVTLKESGPGILKPSQTLSLTCSFSGFSLSTSGMSVGWIRQPSGKGLEWLAHIWWDDDKYYNPSLKSRLTISKDTSRNQVFLKITSVDTADTATYYCARRTTTADYFAYWGQGTTLTVSS
VL: DVLMTQTPLSLPVSLGDQASISCRSSQSIVHSNGNTYLEWYLQKPGQSPKLLIYKVSNRFSGVPDRFSGSGSGTDFTLKISRVEAEDLGIYYCFQSSHVPLTFGAGTKLELK
B3: Fab fragment of 12B4 (Fab, V domains shown)
VH: QVTLKESGPGILQPSQTLSLTCSFSGFSLSTNGMGVSWIRQPSGKGLEWLAHIYWDEDKRYNPSLKSRLTISKDTSNNQVFLKITNVDTADTATYYCARRRIIYDVEDYFDYWGQGTTLTVSS
VL: B2 VL with S28N, I90V, S96G
notes: Fab of the murine IgG2a kappa antibody as crystallized; also called 12B4 Fab
B4: 12B4 murine IgG2a kappa monoclonal antibody (antibody, V domains shown)
VH: B3 VH
VL: B2 VL with S28N, I90V, S96G
B5: Fab fragment of 12A11 (Fab, V domains shown)
VH: B2 VH
VL: B2 VL
notes: also called 12A11 Fab

Tests used:
[1] = biological target: T1, Aβ1-7 peptide (amino acids 1-7 of SEQ ID NO:1); assay: X-ray crystal structure of the Fab:peptide complex
T1 construct: also called Aβ 2-7 (the part visible in the superimposed models)
T1 peptide: DAEFRHD

[2] = biological target: T2, Aβ1-10 peptide (immobilized); assay: BIACORE (SPR), immobilized Aβ1-10, bivalent interaction assumed
T2 construct: also called Ab1-10
T2 peptide: DAEFRHDSGY

[3] = biological target: T3, Aβ1-40 peptide (amino acids 1-40 of SEQ ID NO:1); assay: comparison of unit cell parameters of the Aβ1-7 and Aβ1-40 crystals
T3 construct: also called Aβ40

| Binder | binding result [1] | Kd [2] | binding result [3] |
| --- | --- | --- | --- |
| B1 | binds | – | – |
| B2 | – | 8.4 nM | – |
| B3 | binds | – | – |
| B4 | – | 24.5 nM | – |
| B5 | binds | – | binds |
